Experimental data from IntAct's records for PubMed 14532330.

B1: Protein phosphatase 1 regulatory subunit 3C (Homo sapiens), Q9UQK1 (parent)
chain: MSCTRMIQVLDPRPLTSSVMPVDVAMRLCLAHSPPVKSFLGPYDEFQRRHFVNKLKPLKSCLNIKHKAKSQNDWKCSHNQAKKRVVFADSKGLSLTAIHVFSDLPEEPAWDLQFDLLDLNDISSALKHHEEKNLILDFPQPSTDYLSFRSHFQKNFVCLENCSLQERTVTGTVKVKNVSFEKKVQIRITFDSWKNYTDVDCVYMKNVYGGTDSDTFSFAIDLPPVIPTEQKIEFCISYHANGQVFWDNNDGQNYRIVHVQWKPDGVQTQMAPQDCAFHQTSPKTELESTIFGSPRLASGLFPEWQSWGRMENLASYR
partner: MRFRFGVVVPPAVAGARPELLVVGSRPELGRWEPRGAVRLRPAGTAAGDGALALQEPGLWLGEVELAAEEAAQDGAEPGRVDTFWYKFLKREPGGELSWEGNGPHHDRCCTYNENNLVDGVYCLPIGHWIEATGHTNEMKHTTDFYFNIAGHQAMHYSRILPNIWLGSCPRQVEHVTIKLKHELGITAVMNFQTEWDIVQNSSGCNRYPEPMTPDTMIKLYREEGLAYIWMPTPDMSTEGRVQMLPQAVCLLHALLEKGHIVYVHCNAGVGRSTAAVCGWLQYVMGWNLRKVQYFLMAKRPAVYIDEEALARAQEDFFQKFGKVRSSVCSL
B2: Laforin (Homo sapiens), O95278 (parent)
chain: B1 partner
partner: B1 chain

Variants of: B1
Details: with epm2a_human EPM2A

effect of a mutation on the interaction | Variant
disrupting interaction | MSCTRMIQVLDPRPLTSSVMPVDVAMRLCLAHSPPVKSFLGPYDEFQRRHFVNKLKPLKSCLNIKHKAKSQNDWKCSHNQAKKRVVFADSKGLSLTAIHVFSDLPEEPAWDLQFDLLDLNDISSALKHHEEKNLILDFPQPSTDYLSFRSHFQKNFVCLENCSLQERTVTGTVKVKNVSFEKKVQIRITFDSWKNYTDVDCVYMKNVYGGTDSDTFSFAIDLPPVIPTEQKIEFCISYHANGQVFWANNAGQNYRIVHVQWKPDGVQTQMAPQDCAFHQTSPKTELESTIFGSPRLASGLFPEWQSWGRMENLASYR [D247A;D250A]

Variants of: B2
Details: with ppr3c_human PPP1R3C

effect of a mutation on the interaction | Variant
disrupting interaction | MRFRFGVVVPPAVAGARPELLVVGSRPELGRGEPRGAVRLRPAGTAAGDGALALQEPGLWLGEVELAAEEAAQDGAEPGRVDTFWYKFLKREPGGELSWEGNGPHHDRCCTYNENNLVDGVYCLPIGHWIEATGHTNEMKHTTDFYFNIAGHQAMHYSRILPNIWLGSCPRQVEHVTIKLKHELGITAVMNFQTEWDIVQNSSGCNRYPEPMTPDTMIKLYREEGLAYIWMPTPDMSTEGRVQMLPQAVCLLHALLEKGHIVYVHCNAGVGRSTAAVCGWLQYVMGWNLRKVQYFLMAKRPAVYIDEEALARAQEDFFQKFGKVRSSVCSL [W32G]
decreasing interaction | MRFRFGVVVPPAVAGARPELLVVGSRPELGRWEPRGAVRLRPAGTAAGDGALALQEPGLWLGEVELAAEEAAQDGAEPGRVDTFWYKFLKREPGGELSWEGNGPHHDRCCTYNENNLVDGVYCLPIGHWIEATGHTNEMKHTTDFYFNIAGHQAMHYSRILPNIWLGSCPRQVEHVTIKLKHELGITAVMNFQTEWDIVQNSSGCNRYPEPMTPDTMIKLYREEGLAYIWMPTPDMSTEGRVQMLPQAVCLLHALLEKGHIVYVHCNAGVGRSTAAVCSWLQYVMGWNLRKVQYFLMAKRPAVYIDEEALARAQEDFFQKFGKVRSSVCSL [G279S]
decreasing interaction | MRFRFGVVVPPAVAGARPELLVVGSRPELGRWEPRGAVRLRPAGTAAGDGALALQEPGLWLGEVELAAEEAAQDGAEPGRVDTFWYKFLKREPGGELSWEGNGPHHDRCCTYNENNLVDGVYCLPIGHWIEATGHTNEMKHTTDFYFNIAGHQAMHYSRILPNIWLGSCPRQVEHVTIKLKHELGITAVMNFQTEWDIVQNSSGCNRYPEPMTPDTMIKLYREEGLAYIWMPTPDMSTESRVQMLPQAVCLLHALLEKGHIVYVHCNAGVGRSTAAVCGWLQYVMGWNLRKVQYFLMAKRPAVYIDEEALARAQEDFFQKFGKVRSSVCSL [G240S]
disrupting interaction | MRFRFGVVVPPAVAGARPELLVVGSRPELGRWEPRGAVRLRPAGTAAGDGALALQEPGLWLGEVELAAEEAAQDGAEPGRVDTLWYKFLKREPGGELSWEGNGPHHDRCCTYNENNLVDGVYCLPIGHWIEATGHTNEMKHTTDFYFNIAGHQAMHYSRILPNIWLGSCPRQVEHVTIKLKHELGITAVMNFQTEWDIVQNSSGCNRYPEPMTPDTMIKLYREEGLAYIWMPTPDMSTEGRVQMLPQAVCLLHALLEKGHIVYVHCNAGVGRSTAAVCGWLQYVMGWNLRKVQYFLMAKRPAVYIDEEALARAQEDFFQKFGKVRSSVCSL [F84L]
disrupting interaction | MRFRFGVVVPPAVAGARPELLVVGSRPELGRWEPRGAVRLRPAGTAAGDGALALQEPGLWLGEVELAAEEAAQDGAEPGRVDTFWYKFLKREPGGELSWEGNGPHHDRCCTYNENNLVDGVYCLPIGHWIEATGHTNEMKHTTDFYFNIAGHQAMHYSRILPNIWLGSCPRQVEHVTIKLKHELGITAVMNFQTEWDIVQNSSGCNRYPEPMTPDTMIKLYREEGLAYIWMPTPDMSTEGRVQMLPQAVCLLHALLEKGHIVYVHCNAGVGRSTAAVCGWLQYVMGWNLRKVLYFLMAKRPAVYIDEEALARAQEDFFQKFGKVRSSVCSL [Q293L]
disrupting interaction | MRFRFGVVVPPAVAGARPELLVVGSRPELGRWEPRGAVRLRPAGTAAGDGALALQEPGLWLGEVELAAEEAAQDGAEPGRVDTFWYKFLKREPGGELSWEGNGPHHDCCCTYNENNLVDGVYCLPIGHWIEATGHTNEMKHTTDFYFNIAGHQAMHYSRILPNIWLGSCPRQVEHVTIKLKHELGITAVMNFQTEWDIVQNSSGCNRYPEPMTPDTMIKLYREEGLAYIWMPTPDMSTEGRVQMLPQAVCLLHALLEKGHIVYVHCNAGVGRSTAAVCGWLQYVMGWNLRKVQYFLMAKRPAVYIDEEALARAQEDFFQKFGKVRSSVCSL [R108C]
increasing interaction | MRFRFGVVVPPAVAGARPELLVVGSRPELGRWEPRGAVRLRPAGTAAGDGALALQEPGLWLGEVELAAEEAAQDGAEPGRVDTFWYKFLKREPGGELSWEGNGPHHDRCCTYNENNLVDGVYCLPIGHWIEATGHTNEMKHTTDFYFNIAGHQAMHYSRILPNIWLGSCPRQVEHVTIKLKHELGITAVMNFQTEWDIVQNSSGCNRYPEPMTPDTMIKLYREEGLAYIWMPTPDMSTEGRVQMLPQAVCLLHALLEKGHIVYVHSNAGVGRSTAAVCGWLQYVMGWNLRKVQYFLMAKRPAVYIDEEALARAQEDFFQKFGKVRSSVCSL [C266S]
disrupting interaction | MRFRFGVVVPPAVAGARPELLVVGSRPELGRWEPRGAVRLRPAGTAAGDGALALQEPGLWLGEVELAAEEAAQDGAEPGRVDTFWYKFLKREPGGELSWEGNGPHHDRCCTYNENNLVDGVYCLPIGHWIEATGHTNEMKHTTDFYFNIAGHQAMHYSRILPNIWLGSCPRQVEHVTIKLKHELGITAVMNFQIEWDIVQNSSGCNRYPEPMTPDTMIKLYREEGLAYIWMPTPDMSTEGRVQMLPQAVCLLHALLEKGHIVYVHCNAGVGRSTAAVCGWLQYVMGWNLRKVQYFLMAKRPAVYIDEEALARAQEDFFQKFGKVRSSVCSL [T194I]
disrupting interaction | MRFRFGVVVPPAVAGARPELLVVGSRPELGRWEPRGAVRLRPAGTAAGDGALALQEPGLWLGEVELAAEEAAQDGAEPGRVDTFWYKFLKREPGGELSWEGNGPHHDRCCTYNENNLVDGVYCLPIGHWIEATGHTNEMKHTTDFYFNIAGHQAMHYSRILPNIWLGSCPRQVEHVTIKLKHELGITAVMNFQTEWDIVQNSSGCNRYPEPMTPDTMIKLYREEGLAYIWMPTPDMSTEGRVQMLPQAVCLLHALLEKGHIVYVHCNAGVGRSTAAVCGWLQYVMGWNLRKVQNFLMAKRPAVYIDEEALARAQEDFFQKFGKVRSSVCSL [Y294N]
disrupting interaction | MRFRFGVVVPPAVAGARPELLVVGSRPELGRWEPRGAVRLRPAGTAAGDGALALQEPGLWLGEVELAAEEAAQDGAEPGRVDTFWYKFLKREPGGELSWEGNGPHHDRCCTYNENNLVDGVYCLPIGHWIEATGHTNEMKHTTDFYFNIAGHQAMHYSRILPNIWLGSCPRQVEHVTIKLKHELGITAVMNFQTEWDIVQNSSGCNRYPEPMTPDTMIKLYREEGLAYIWMPTPDMSTEGRVQMLPQAVCLLHALLEKGHIVYVHCNAGVGRSTAAVCGWLQYVMGWNLRKVQYFLMAKRLAVYIDEEALARAQEDFFQKFGKVRSSVCSL [P301L]
